# Data reported in paper doi:10.1101/2022.07.22.501140.
# Where two headings read alike, the source gives them in different places.
# T1: DmBicc1 N-term (Drosophila melanogaster, UniProt Q24009 1-506)
# T1 sequence: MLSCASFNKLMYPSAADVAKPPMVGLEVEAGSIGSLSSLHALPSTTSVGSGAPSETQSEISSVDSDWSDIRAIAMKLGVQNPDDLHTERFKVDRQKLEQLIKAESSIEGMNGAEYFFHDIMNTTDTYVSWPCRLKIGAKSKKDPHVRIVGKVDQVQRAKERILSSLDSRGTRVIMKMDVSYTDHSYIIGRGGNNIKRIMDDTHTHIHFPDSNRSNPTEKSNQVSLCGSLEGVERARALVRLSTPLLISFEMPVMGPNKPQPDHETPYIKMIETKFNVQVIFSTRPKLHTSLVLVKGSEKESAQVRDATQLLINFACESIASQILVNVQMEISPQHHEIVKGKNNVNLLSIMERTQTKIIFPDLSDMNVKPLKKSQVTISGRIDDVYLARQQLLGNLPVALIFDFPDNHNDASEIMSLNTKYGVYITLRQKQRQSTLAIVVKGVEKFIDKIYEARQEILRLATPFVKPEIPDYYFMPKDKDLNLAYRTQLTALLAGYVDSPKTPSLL
# What was measured:
# Test in all cases: fluorescence polarization
# [1] = molecular target: T2, XlBicc1 N-term (KH1-KH3) (Xenopus laevis, UniProt A0A1L8FE49 1-506)
# [2] = molecular target: T3, HsBicc1 N-term (human, UniProt Q9H694 1-506)
# T3 sequence (Q9H694 1-506): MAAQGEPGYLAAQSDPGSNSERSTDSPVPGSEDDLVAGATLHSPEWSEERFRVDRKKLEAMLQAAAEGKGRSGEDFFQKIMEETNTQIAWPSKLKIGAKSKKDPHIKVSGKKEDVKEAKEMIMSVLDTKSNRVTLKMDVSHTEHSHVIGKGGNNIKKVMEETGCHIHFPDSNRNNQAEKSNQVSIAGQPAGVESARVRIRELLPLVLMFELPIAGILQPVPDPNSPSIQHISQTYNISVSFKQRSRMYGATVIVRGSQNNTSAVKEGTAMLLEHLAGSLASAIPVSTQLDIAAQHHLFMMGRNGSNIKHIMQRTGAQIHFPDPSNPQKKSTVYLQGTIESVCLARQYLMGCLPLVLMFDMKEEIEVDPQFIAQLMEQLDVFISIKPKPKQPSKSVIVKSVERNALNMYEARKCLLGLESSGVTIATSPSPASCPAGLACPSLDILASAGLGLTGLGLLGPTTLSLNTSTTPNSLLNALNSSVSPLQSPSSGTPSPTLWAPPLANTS
# [3] = molecular target: T1, DmBicc1 N-term
# [4] = molecular target: T4, XlKH1-DmBicc1KH2-KH3 (Xenopus laevis / Drosophila …, UniProt A0A1L8FE49 1-134+Q24009:179-506, internal_change)
# [5] = molecular target: T2, XlBicc1 N-term (KH1-KH3); remark: listed apart in the source
# [6] = molecular target: T3, HsBicc1 N-term; remark: listed apart in the source
# [7] = molecular target: T1, DmBicc1 N-term; remark: listed apart in the source
# [8] = molecular target: T4, XlKH1-DmBicc1KH2-KH3; remark: listed apart in the source
# [9] = molecular target: T2, XlBicc1 N-term (KH1-KH3); remark: listed apart in the source
# [10] = molecular target: T3, HsBicc1 N-term; remark: listed apart in the source
binder,measurement,setting,value
CGACUCUAGAAGGACUACGUGGCAUUCCAAUU (ssRNA) [Cyclin B1 negative control RNA],binding result,[1],no binding
CUUAUUAGACACGUUGUCGCGAAACAGCUCC (structured_RNA) [Cripto-1 loop variant],binding signal,[2],15 fold reduction vs wild-type RNA
same,binding signal,[3],3.2 fold reduction vs wild-type RNA
same,binding result,[4],no binding
same,Kd,[5],~12 µM
CUUAUUAGACACGUUGUACAUUAACAGCUCC (structured_RNA) [XlCripto-1 wild-type RNA site],binding result,[6],binds
same,Kd,[7],93 nM
same,Kd,[8],89 nM
same,Kd,[9],34 nM
CGACUCUAGAAGGUUGUACAUUAACAGCUCC (structured_RNA) [Cripto-1 leader variant],binding result,[10],no binding
same,binding result,[7],no binding
same,binding result,[9],no binding
